T1: ΔNp63α (RLuc- and YFP-fusions, full length) (human), Q9H3D4
T1 chain: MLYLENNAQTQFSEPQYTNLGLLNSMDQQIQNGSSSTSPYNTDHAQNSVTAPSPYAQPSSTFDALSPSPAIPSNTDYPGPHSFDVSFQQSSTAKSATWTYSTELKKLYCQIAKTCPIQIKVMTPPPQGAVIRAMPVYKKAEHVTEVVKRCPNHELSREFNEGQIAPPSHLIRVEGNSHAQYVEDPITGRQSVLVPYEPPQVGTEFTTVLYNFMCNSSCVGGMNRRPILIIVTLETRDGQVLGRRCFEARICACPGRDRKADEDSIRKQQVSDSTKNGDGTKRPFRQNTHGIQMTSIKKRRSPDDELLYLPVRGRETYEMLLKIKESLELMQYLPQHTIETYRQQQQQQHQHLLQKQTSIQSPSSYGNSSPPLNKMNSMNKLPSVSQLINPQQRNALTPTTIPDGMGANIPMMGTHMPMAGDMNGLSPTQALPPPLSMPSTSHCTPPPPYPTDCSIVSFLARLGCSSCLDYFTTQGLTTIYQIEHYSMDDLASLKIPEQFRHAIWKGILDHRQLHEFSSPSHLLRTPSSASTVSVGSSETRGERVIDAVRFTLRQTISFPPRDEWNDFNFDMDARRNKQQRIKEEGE


Experiments:
[1] = molecular target: FITC-ΔNp63α NLSbip peptide (residues 278-302) (human); assay: fluorescence polarisation
[2] = molecular target: T1, ΔNp63α (RLuc- and YFP-fusions, full …); assay: FRET or BRET; conditions: remark: other sources report otherwise

| Molecule | Kd [1] [nM] | BRET ratio [2] |
| --- | --- | --- |
| human IMPα1ΔIBB (importin α1 lacking the IMPβ1 binding domain) (domain or fragment) | 4.3 | – |
| human IMPα3ΔIBB (importin α3 lacking the IMPβ1 binding domain) (domain or fragment) | 6.7 | – |
| human IMPα7ΔIBB (importin α7 lacking the IMPβ1 binding domain) (domain or fragment) | 4.6 | – |
| ΔNp63α (RLuc- and YFP-fusions, full length), Q9H3D4-2 1-586 (natural protein) MLYLENNAQTQFSEPQYTNLGLLNSMDQQIQNGSSSTSPYNTDHAQNSVTAPSPYAQPSSTFDALSPSPAIPSNTDYPGPHSFDVSFQQSSTAKSATWTYSTELKKLYCQIAKTCPIQIKVMTPPPQGAVIRAMPVYKKAEHVTEVVKRCPNHELSREFNEGQIAPPSHLIRVEGNSHAQYVEDPITGRQSVLVPYEPPQVGTEFTTVLYNFMCNSSCVGGMNRRPILIIVTLETRDGQVLGRRCFEARICACPGRDRKADEDSIRKQQVSDSTKNGDGTKRPFRQNTHGIQMTSIKKRRSPDDELLYLPVRGRETYEMLLKIKESLELMQYLPQHTIETYRQQQQQQHQHLLQKQTSIQSPSSYGNSSPPLNKMNSMNKLPSVSQLINPQQRNALTPTTIPDGMGANIPMMGTHMPMAGDMNGLSPTQALPPPLSMPSTSHCTPPPPYPTDCSIVSFLARLGCSSCLDYFTTQGLTTIYQIEHYSMDDLASLKIPEQFRHAIWKGILDHRQLHEFSSPSHLLRTPSSASTVSVGSSETRGERVIDAVRFTLRQTISFPPRDEWNDFNFDMDARRNKQQRIKEEGE | – | 0.18 |
